# Experimental data from patent US20030082561, “Zinc finger domain recognition code and uses thereof” (published 2003).
# B1: AL1 probe G (wild type) (dsDNA)
# DNA 1: TATATATAAGTAAGGTAGTATATATA
# DNA 2: TATATATACTACCTTACTTATATATA
# Molecular target: AL1 ZFP (Clone 1) (artificial)
# Test: EMSA; significant binding at 14-35 nM; text prints SEQ ID NO 27 for the bound probe, apparently meaning the G (wild-type) probe SEQ ID NO 26
# Conditions: tags: three Sp1C domain 2 framework fingers, pET21-a, E. coli BL21(DE3)pLysS; label: 5'-32P
# Sequence of AL1 ZFP (Clone 1) (artificial) (chain, as listed by the source): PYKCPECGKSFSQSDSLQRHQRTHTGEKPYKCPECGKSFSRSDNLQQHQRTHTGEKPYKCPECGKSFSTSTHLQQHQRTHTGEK
binder,measurement,value
B1,binding result,binds
